Two molecules from patent publication US20150210738, “MOLECULAR SLEDS AND USES […]” (The Broad Institute, Inc., published 2015) can be followed below.

No end group written: not given here.

Series [1] has as its target T1, 8-Actin-C (beta-actin C-terminal peptide).
T1 chain: SIVHRKC(Cy3B)F
Description: FP; Cy3B-peptide, pH 7. To be noted: protein: synthetic; tags: synthetic peptide; Cy3B at Cys7'; label: 5'-fluorescein (unlabeled with Cy3B-labeled protein).

In series [2] the target is T2, random peptide (scrambled pVIc) (synthetic).
T2 chain: SFRRCGLRQVK
Description: FP; scrambled pVIc; does not slide on DNA. The conditions noted are these: tags: Cy3B at Cys5'; label: 5'-fluorescein (unlabeled with Cy3B-labeled protein).

Series [3] addresses T3, pVIc (C-terminal peptide of pVI) (Human adenovirus 2, UniProt P03274).
T3 chain: GVQSLKRRRCF
Description: FP; Cy3B-pVIc, 20 mM Hepes pH 7, 0.025% DDM, 10 mM NaCl; 7 bp site. To be noted: protein: synthetic; tags: synthetic peptide; Cy3B at Cys10' in pH 7 and sliding assays; label: 5'-fluorescein (unlabeled with Cy3B-labeled protein).

Series [4] addresses pVI (precursor to protein VI) (Human adenovirus 2, UniProt P03274 P03274:1-250). Put plainly: FP; 0.02 M NaCl, pH 8; 155, 328, 449, 1044 nM at 0.03, 0.04, 0.05, 0.06 M NaCl; 2.9 ion pairs. To be noted: label: 5'-fluorescein (unlabeled with Cy3B-labeled protein).
The target of series [5] is streptavidin-Alexa Fluor 546 (UniProt P22629 P22629:25-183). Put plainly: FRET; streptavidin alone does not bind. To be noted: tags: Alexa Fluor 546; Invitrogen; chain copies: 4; label: 5'-fluorescein.
streptavidin-Alexa Fluor 546, sequence (P22629 25-183, one chain of several): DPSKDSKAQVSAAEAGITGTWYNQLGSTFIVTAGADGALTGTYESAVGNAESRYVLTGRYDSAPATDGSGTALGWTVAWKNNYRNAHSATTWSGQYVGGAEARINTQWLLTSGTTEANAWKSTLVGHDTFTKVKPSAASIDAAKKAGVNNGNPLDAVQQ
For series [6], the target named is (pVIc-biotin):streptavidin complex (Human adenovirus 2 / Streptomyces …, UniProt P03274;P22629 P03274:240-250,P22629:25-183). Put plainly: FRET quenching, 20 mM Na phosphate pH 7.5, 0.05% DDM. To be noted: tags: pVIc Cys10' PEG-biotin, streptavidin-Alexa Fluor 546 (Invitrogen); label: 5'-fluorescein.
(pVIc-biotin):streptavidin complex, sequence (P22629 25-183, one chain of several): as above

As usually defined, the Kd is a measure of binding affinity in units of concentration. A low value points to higher affinity.

pVI (precursor to protein VI), sequence (P03274 whole entry, one chain of several): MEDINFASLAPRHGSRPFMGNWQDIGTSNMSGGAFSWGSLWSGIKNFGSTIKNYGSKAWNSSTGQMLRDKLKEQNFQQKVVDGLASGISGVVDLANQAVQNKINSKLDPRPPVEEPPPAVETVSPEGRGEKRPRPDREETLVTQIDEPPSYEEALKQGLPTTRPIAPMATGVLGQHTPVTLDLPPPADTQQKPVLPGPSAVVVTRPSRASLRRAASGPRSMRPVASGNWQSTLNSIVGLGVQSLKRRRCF

B1: 12-mer dsDNA (dsDNA)
DNA 1: GACGACTAGGAT
DNA 2: ATCCTAGTCGTC
Turning to B1, the dissociation constant Kd in series [1] was 0.005 µM; in series [2], 0.646 µM; in series [3], 0.264 µM; in series [4] it was 0.055 µM.

B2: 18-mer dsDNA (dsDNA)
DNA 1: CAGGAAACAGCTATGACC
DNA 2: GGTCATAGCTGTTTCCTG
With B2, the binding result in series [5] is on record as “no binding”. The molecule also returned a dissociation constant Kd in series [6] of 0.035 µM.
